# The DeepSol protein solubility set
# Experiment: soluble on expression in E. coli; label from the status in PepcDB or PDB records
row,Sequence,soluble on expression in E. coli
1,GSMTEETHPDDDSYIVRVKAVVMTRDDSSGGWFPQEGGGISRVGVCKVMHPEGNGRSGFLIHGERQKDKLVVLECYVRKDLVYTKANPTFHHWKVDNRKFGLTFQSPADARAFDRGVRKAIEDLIE,soluble
2,MKKHIALIFTPINKKYKDALTHYAPPLGLVALANYISERLQNVRISILDGSVTHSMEDIIKFIEDEKPDIVAQSVQLISYENSLVIAKSAHNIGSINVLGGQHATQMADAIIFRQQGLIDYVSIEDGEESLLGLLEERDISEIPNLVFMKDGKINRTKYFQLDLKNAPKLDYSIVDFKPYQKLLNESNFTNPNPINNYLRVYSHKGCGNRKNSVGCVFCGRADKGVRFKSPEKFWEDIKICADEFKADYIFDVGDDFLYNHDWVSKVAEIKPDIRKKFELGIFARANRVNLSIAKKLKKIGVTDVVIGFESGDEEVLRRCNKRDTSTETSLIAADALATAGIDITASFVLGLPGENSESLKKTIKCAEKVVNIITEKLGRPPREMVGNLIEPSPGSIAYNQLLKAYPGKYYLNDYVPLDEMQRDYFKYYFGLDSLKSYLEFRKELNKAAQEIHGLVSFSDSQGWLEDEFV,not soluble
3,VEGLNPLIPQKSNRGVIDVAIFREYVSGGKDRAAEDRRRHRELVEESIKKNIGNIIAEESIIGQSKDKKIKIPIRSIKEYQFVYGKNGPSVGSGDGTEKRGEKIGEEKTANGGQGVGQAGNQEGEEIYETEITIEELINYLFDDLNLPDIDKKRIAEQESIRSYKNLGYQRKGIPPRLAKKRSVIEKIKRKQAYLRNSRELGDLDESAEEDIAAQETLDGVRKRFPFSEDDLRYRRVREDRKKDFNAVVICIMDVSGSMDQTKKYLARSFYFLLYQFIRLKYANVDVVFIAHTTTAKEVSEDEFFHRGESGGTYISSGYEKALEIIEQRYNPNSWNIYAFHCSDGDNWSEDNKKAVELGLKLCDVCNLFGYGEIVPGYYSTGSTIKDEFQKSIKRDNFSVITITNKDDVLPGLKKLLEKEGE,soluble
4,ESVKGAQTDLTSLTDESQEKTLENGSPSSKIAVLEVSGTIQDNGDSSSLLGADGYNHRTFLKNLERAKDDKTVKGIVLKVNSPGGGVYESAEIHKKLEEIKKETKKPIYVSMGSMAASGGYYISTAADKIFATPETLTGSLGVIMESVNYSKLADKLGISFETIKSGAHKDIMSPSREMTKEEKNIMQSMVDNSYEGFVDVISKGRGMPKAEVKKIADGRVYDGRQAKKLNLVDELGFYDDTITAMKKDHKDLKNASVISYEESFGLGSLFSMGANKMFKSEIDFLNMREILSQSGS,not soluble
5,MGHHHHHHSHQETQLSSKVVQKLVLPFGRLNYLPLEQQFMPCLERILAREAGVAPLATVNILMSLCQLRCLPFRALHFVFSPGFINYISGTPHALIVRRYLSLLDTAVELELPGYRGPRLPRRQQVPIFPQPLITDRARCKYSHKDIVAEGLRQLLGEEKYRQDLTVPPGYCTDFLLCASSSGAVLPVRTQDPFLP,not soluble
6,MFPVNCYVLWDDTKEAVVIDPGCFYEEEKQALKKFILTNELTVKHLLNTHLHLDHIFGNPFMLKEFGLSAEANKADEFWIDEAPKQSRMFGFQLQEEPVPLGKYLHDGDIITFGHTKLEAIHVPGHSPGSLVYYCKEENCMFSGDVLFQGSIGRADLSGGNFDELIDHICSRLFVLPNETVVYPGHGAPTTIGMEKAENPFFR,not soluble
7,MASVHGTTYELLRRQGIDTVFGNPGSNELPFLKDFPEDFRYILALQEACVVGIADGYAQASRKPAFINLHSAAGTGNAMGALSNAWNSHSPLIVTAGQQTRAMIGVEALLTNVDAANLPRPLVKWSYEPASAAEVPHAMSRAIHMASMAPQGPVYLSVPYDDWDKDADPQSHHLFDRHVSSSVRLNDQDLDILVKALNSASNPAIVLGPDVDAANANADCVMLAERLKAPVWVAPSAPRCPFPTRHPCFRGLMPAGIAAISQLLEGHDVVLVIGAPVFRYHQYDPGQYLKPGTRLISVTCDPLEAARAPMGDAIVADIGAMASALANLVEESSRQLPTAAPEPAKVDQDAGRLHPETVFDTLNDMAPENAIYLNESTSTTAQMWQRLNMRNPGSYYFCAAGGLGFALPAAIGVQLAEPERQVIAVIGDGSANYSISALWTAAQYNIPTIFVIMNNGTYGALRWFAGVLEAENVPGLDVPGIDFRALAKGYGVQALKADNLEQLKGSLQEALSAKGPVLIEVSTVSPVKHHHHHH,soluble
8,MYQIISDSACDLTELYVKKHNIEIVPLTASLDGETYLKDKTEINRKDFYTTMVENPDIFPKTSLPSVESYETVFRKYAEQNIPVVCFTISIHLSGSYNSASMAKDVVEEDYPDAKIVVLDSQQDTVSQALIIDQVVRMQNDGIPFDTMIENTKKLMGTARIFFTVGSLDYLRIGGRIGKMAISATGKLGIKPIIILKDGEVNLGGVGRNRGKLKKNLIQIADKYLTENGKDNFVVSIGYGYDAIEGVAFKDEVEAGLGVKLNGDTNVEIGVITAVHTGPHAIGIGVIQKYETLK,not soluble
9,MGSDKIHHHHHHMRHELDNPHAHATNNPCIRCLRHADRYARAVVSMLEVFASDKAEAKHNLFLKEGLCDIDKTLRSNDKRDTLRERPRNQTSSAMTLSPEKRARVMQGEILIDLNWLPDGVIGAKGSVFVEAEPPVVWRMLTDYDHLHETMPKVISSRLLETNNQTRIIAQSGKSGIFIFEKTVNFTLKVEEVFPEHLWFSQIGGDFQVYEGEWQLEAVEGKNGHATLLSYQAEIKPDFFAPQFVVSFVQSQDLPTILRAIRSYCEARAKG,not soluble
10,GPGSMENKLLSAPQNTVNPIIEKKRVVSCGMCEVDTTKLLEELRKVKENLSEVIDECIFLENQCEMTEKRLKSELLDRDKRIADISSALMEMVKYTSLLERQVIASAFTTLGSAMKRAPAIDMCRNISLREVASAVRERGESSGSRSSAKRKTRNGALYSEAKMAEEKNAFLLSVDEACALVNGLLREKVNLAAKIGEVAFHVNNAIARGERTSPALPDASSENVDDLHQSILNLTKQLSACGNEGDEEKNLKQVPSQHTAETEEPRQPQGLIAEKEDNTSRPQSPSQTQPPAGLASLGPHILDISRSSLPAVSITTQKGEGECGDITTESLVKKLAAAEEKCMAVEKQSRREREELHAELAYLRNSSREEKEEYNTLIERLTVELEILVAENAVMRKRIKGRKHSRDKIE,not soluble
11,MSETLDQWRAGLTLGFAPGHAGRTVLRERAHYGPMLVQRALYPEGPQVCHVAILHPPSGIAGGDALEIRVDVAGGARAALTTPGATRWYKSNGRQASQDVHLRVAAGGRLDWLPLESIFFEEADALARNRIQLESGAAAIGWDLIQLGRVNQSGHWSQGRLHTATELYVDGRLLWVDQGLVGAQDDVRRQVSGLAGFPVHAALWSFGPRLDAEQNEELAGLMPWSDTLRGAATTMPYDATQSLCLVRCLGVHMEDVRAVMTDAWAYLRPRVLDTPAVVPRLWATKLAAALEHHHHHH,not soluble
12,DWVIPPISSPENEKGPFPKNLVQIKSNKDKEGKVFYSITGQGADTPPVGVFIIERETGWLKVTEPLDRERIATYTLFSHAVSSNGNAVEDPMEILITVTDQNDNKPEFTQEVFKGSVMEGALPGTSVMEVTATDADDDVNTYNAAIAYTILSQDPELPDKNMFTINRNTGVISVVTTGLDRESFPTYTLVVQAADLQGEGLSTTATAVITVTD,soluble
13,MCIGVPGQVLAVGEDIHQLAQVEVCGIKRDVNIALICEGNPADLLGQWVLVHVGFAMSIIDEDEAKATLDALRQMDYDITSA,not soluble
14,SRVSVTDYKRLLDSGAFHLLLDVRPQVEVDICRLPHALHIPLKHLERRDAESLKLLKEAIWEEKQGTQEGAAVPIYVICKLGNDSQKAVKILQSLSAAQELDPLTVRDVVGGLMAWAAKIDGTFPQY,soluble
15,MFRAMSTRKIHGGYEKLGDEEARLKRVSSVPASVYGHSRNPVQEVKKTPTAKPTGGSVHPLFSFFDVHFQRKKKNTAKKKSLATAKPEFARYMEYVREGGVWDPSSNAPVIHYR,not soluble
16,IKLVIVTGMSGAGKTVAIQSFEDLGYFTIDNMPPTLVPKFLELAAQSGDTSKIAMVVDMRSRLFFREINSILDSLEINDNINFKILFLDATDTELVSRYKETRRSHPLAADGRVLDGISLERELLAPLKSMSQNVVDTSELTPRQLRKVISKEFSNQDSQSSFRIEVMSFGFKYGIPLDADLVFDVRFLPNPYYKPELRDKTGLDTEVYDYVMSFDESDDFYDHLLALIKPILPGYQNEGKSVLTVAIGCTGGQHRSTAFAHRLSEDLKADWTVNESHRDKNKR,not soluble
17,MVDGKHRMVYNITRFSCPTFSLSASAAAVAGRLTPAVPQNTLSRKSCYGAATSAPSSSYNVMYQQQEDTGIDAFAQFGQQSQQYHPSPELSEQINASKCSPYLTEILVGCEQLIAEGEEDSPTWISAIRQRFEDPQMDEVSKKIGVKLIIEMAFTMEPNQFRTADPQNTFSNLLKTLSYEVKDFLRVFIVPTLGEYHEGRKQLENDSRVYMAVFYAEVFVKLTLDNGSRFDKIGAALADQIEEILKFQPKDEYMKCLLRAFKVAGAELDTSEDLKLRADHILTIMGGYAKGSPLLGDSVKAQIFSLIECRTRGWDRAAARGPVRSSAGAGGGGGCVADRGEHDSSFDDSTDNDLTEEERQFLESHLEQVESRRGAEEDYDEQEMMKEFGKFVKEELQQAELKSTSEMLQKLEIEKDTAGAATETDETTPKTEEK,not soluble
18,MGHHHHHHHHHHSSGHIEGRHMAAVTLHLRAETKPLEARAALTPTTVKKLIAKGFKIYVEDSPQSTFNINEYRQAGAIIVPAGSWKTAPRDRIIIGLKEMPETDTFPLVHEHIQFAHCYKDQAGWQNVLMRFIKGHGTLYDLEFLENDQGRRVAAFGFYAGFAGAALGVRDWAFKQTHSDDEDLPAVSPYPNEKALVKDVTKDYKEALATGARKPTVLIIGALGRCGSGAIDLLHKVGIPDANILKWDIKETSRGGPFDEIPQADIFINCIYLSKPIAPFTNMEKLNNPNRRLRTVVDVSADTTNPHNPIPIYTVATVFNKPTVLVPTTAGPKLSVISIDHLPSLLPREASEFFSHDLLPSLELLPQRKTAPVWVRAKKLFDRHCARVKRSSRL,soluble
19,MNEQIPHDKSLDNSLTLLKEGYLFIKNRTERYNSDLFQARLLGKNFICMTGAEAAKVFYDTDRFQRQNALPKRVQKSLFGVNAIQGMDGSAHIHRKMLFLSLMTPPHQKRLAELMTEEWKAAVTRWEKADEVVLFEEAKEILCRVACYWAGVPLKETEVKERADDFIDMVDAFGAVGPRHWKGRRARPRAEEWIEVMIEDARAGLLKTTSGTALHEMAFHTQEDGSQLDSRMAAIELINVLRPIVAISYFLVFSALALHEHPKYKEWLRSGNSREREMFVQEVRRYYPFGPFLGALVKKDFVWNNCEFKKGTSVLLDLYGTNHDPRLWDHPDEFRPERFAEREENLFDMIPQGGGHAEKGHRCPGEGITIEVMKASLDFLVHQIEYDVPEQSLHYSLARMPSLPESGFVMSGIRRKS,soluble
20,MSLGILEQLENPKFKATKSEKTLIEYIKSDLDNIIYKSISIIAKESGVGEATITRFTKKLGFNGFQDFKVTLAKEISNKKNTSIINLHVHRDESVTETANKMLKSSINILEQTVKQIDLDLMCKCRDLIMNAKRVYFIGIGYSGIAATDINYKFMRIGFTTVPVTDSHTMVIMSSITNDDDVIVAISNSGTTKEVIKTVKQAKENGTKIITLTEDSDNPLRKLSDYELTYTSAETIFETGSISSKIPQIFLLDLLYTEVIKEMFSEAVEKKIKTTSAILNEGHHHHHH,soluble
